Target: T1, human C-C motif chemokine receptor 8 (CCR8) (human, UniProt P51685 1-355)
T1 construct: whole, on cells; also called human CCR8; hCCR8
Assay: FACS (MFI-PE) on CHO-K1 hCCR8 cells, bars at five doses
Method: PE Goat anti-Human IgG Fc Secondary Antibody (eBioscience™, Invitrogen) was added to each well and incubated at 4° C. for 30 mins. Samples were washed twice with FACS buffer. The mean florescence intensity (MFI) of PE was evaluated by MACSQuant Analyzer 16.

T1 sequence (P51685 whole entry): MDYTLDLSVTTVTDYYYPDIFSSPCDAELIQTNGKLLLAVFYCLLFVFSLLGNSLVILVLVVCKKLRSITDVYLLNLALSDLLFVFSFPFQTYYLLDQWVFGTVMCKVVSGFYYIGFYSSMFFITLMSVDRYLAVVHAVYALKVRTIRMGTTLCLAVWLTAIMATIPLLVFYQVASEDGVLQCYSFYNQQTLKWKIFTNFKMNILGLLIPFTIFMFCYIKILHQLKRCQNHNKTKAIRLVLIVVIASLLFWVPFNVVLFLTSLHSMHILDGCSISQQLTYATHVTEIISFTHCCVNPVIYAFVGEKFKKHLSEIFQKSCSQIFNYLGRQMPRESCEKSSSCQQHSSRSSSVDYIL

Binder	binding result
Hu195H8D10-7 (antibody, V domains shown, humanized) VH: EVQLVESGGGLVQPGGSLRLSCAASGFNFNTYVMNWVRQAPGKGLEWVARIRTKSNNYATYYADSVKDRFTISRDDSKNSLYLQMNSLKTEDTAVYYCVSGTITRLGGGLDYWGQGTLVTVSS VL: DIVMTQSPLSLPVTPGEPASISCRSSKRLLHSNGNTYLYWYLQKPGQSPQLLIYRMSNLASGVPDRFSGSGSGTAFTLKISRVEAEDVGVYYCMQHLEYPFTFGGGTKLEIK	binds
Hu195H8D10-5 (antibody, V domains shown, humanized) VH: EVQLVESGGGLVQPGGSLRLSCAASGFNFNTYVMNWVRQAPGKGLEWVARIRTKSNNYATYYADSVKDRFTISRDDSKNSLYLQMNSLKTEDTAVYYCVSGTITRLGGGLDYWGQGTLVTVSS VL: DIVMTQSPLSLPVTPGEPASISCRSSKRLLHSNGNTYLYWYLQKPGQSPQLLIYRMSNLASGVPDRFSGSGSGTDFTLKISRVEAEDVGVYYCMQHLEYPFTFGGGTKLEIK	binds
Hu200C9B9-4 (antibody, V domains shown, humanized) VH: EVQLVESGGGLVQPGGSLRLSCAASGFSFNTYVMNWVRQAPGKGLEWVGRIRTKSNNYATFYVDSVKDRFTISRDDSKNSLYLQMNSLKTEDTAVYYCARGTITRLGAGLDYWGQGTLVTVSS VL: DIVMTQSPLSLPVTPGEPASISCRSSKSLLHSNGNTYLYWFLQKPGQSPQLLIYRMSNLASGVPDRFSGSGSGTAFTLKISRVEAEDVGVYYCMQHLEYPFTFGGGTKLEIK	binds
Hu200C9B9-9 (antibody, V domains shown, humanized) VH: EVQLVESGGGLVQPGGSLRLSCAASGFSFNTYVMNWVRQAPGKGLNWVARIRTKSNNYATFYVDSVKDRFTISRDDSKNSLYLQMNSLKTEDTAVYYCVSGTITRLGAGLDYWGQGTLVTVSS VL: DIVMTQSPLSLPVTPGEPASISCRSSKSLLHSNGNTYLYWYLQKPGQSPQLLIYRMSNLASGVPDRFSGSGSGTDFTLKISRVEAEDVGVYYCMQHLEYPFTFGGGTKLEIK	binds
Hu200C9B9-16 (antibody, V domains shown, humanized) VH: EVQLVESGGGLVQPGGSLRLSCAASGFSFNTYVMNWVRQAPGKGLNWVARIRTKSNNYATFYVDSVKDRFTISRDDSENSLYLQMNSLKTEDTAVYYCVSGTITRLGAGLDYWGQGTLVTVSS VL: DIVMTQSPLSLPVTPGEPASISCRSSKSLLHSNGNTYLYWFLQKPGQSPQLLIYRMSNLASGVPDRFSGSGSGTAFTLKISRVEAEDVGVYYCMQHLEYPFTFGGGTKLEIK	binds
Hu200C9B9-6 (antibody, V domains shown, humanized) VH: EVQLVESGGGLVQPGGSLRLSCAASGFSFNTYVMNWVRQAPGKGLEWVARIRTKSNNYATFYVDSVKDRFTISRDDSKNSLYLQMNSLKTEDTAVYYCVSGTITRLGAGLDYWGQGTLVTVSS VL: DIVMTQSPLSLPVTPGEPASISCRSSKSLLHSNGNTYLYWFLQKPGQSPQLLIYRMSNLASGVPDRFSGSGSGTDFTLKISRVEAEDVGVYYCMQHLEYPFTFGGGTKLEIK	binds
Hu195H8D10-4 (antibody, V domains shown, humanized) VH: EVQLVESGGGLVQPGGSLRLSCAASGFNFNTYVMNWVRQAPGKGLEWVGRIRTKSNNYATYYADSVKDRFTISRDDSKNSLYLQMNSLKTEDTAVYYCARGTITRLGGGLDYWGQGTLVTVSS VL: DIVMTQSPLSLPVTPGEPASISCRSSKRLLHSNGNTYLYWFLQKPGQSPQLLIYRMSNLASGVPDRFSGSGSGTAFTLKISRVEAEDVGVYYCMQHLEYPFTFGGGTKLEIK	binds
Hu195H8D10-2 (antibody, V domains shown, humanized) VH: EVQLVESGGGLVQPGGSLRLSCAASGFNFNTYVMNWVRQAPGKGLEWVGRIRTKSNNYATYYADSVKDRFTISRDDSKNSLYLQMNSLKTEDTAVYYCARGTITRLGGGLDYWGQGTLVTVSS VL: DIVMTQSPLSLPVTPGEPASISCRSSKRLLHSNGNTYLYWFLQKPGQSPQLLIYRMSNLASGVPDRFSGSGSGTDFTLKISRVEAEDVGVYYCMQHLEYPFTFGGGTKLEIK	binds
Hu195H8D10-10 (antibody, V domains shown, humanized) VH: EVQLVESGGGLVQPGGSLRLSCAASGFNFNTYVMNWVRQAPGKGLEWVARIRTKSNNYATYYADSVKDRFTISRDDSKSSLYLQMNSLKTEDTAVYYCVSGTITRLGGGLDYWGQGTLVTVSS VL: DIVMTQSPLSLPVTPGEPASISCRSSKRLLHSNGNTYLYWFLQKPGQSPQLLIYRMSNLASGVPDRFSGSGSGTDFTLKISRVEAEDVGVYYCMQHLEYPFTFGGGTKLEIK	binds
Hu195H8D10-16 (antibody, V domains shown, humanized) VH: EVQLVESGGGLVQPGGSLRLSCAASGFNFNTYVMNWVRQAPGKGLEWVARIRTKSNNYATYYADSVKDRFTISRDDSESSLYLQMNSLKTEDTAMYYCVSGTITRLGGGLDYWGQGTLVTVSS VL: DIVMTQSPLSLPVTPGEPASISCRSSKRLLHSNGNTYLYWFLQKPGQSPQLLIYRMSNLASGVPDRFSGSGSGTAFTLKISRVEAEDVGVYYCMQHLEYPFTFGGGTKLEIK	binds
Hu195H8D10-12 (antibody, V domains shown, humanized) VH: EVQLVESGGGLVQPGGSLRLSCAASGFNFNTYVMNWVRQAPGKGLEWVARIRTKSNNYATYYADSVKDRFTISRDDSKSSLYLQMNSLKTEDTAVYYCVSGTITRLGGGLDYWGQGTLVTVSS VL: DIVMTQSPLSLPVTPGEPASISCRSSKRLLHSNGNTYLYWFLQKPGQSPQLLIYRMSNLASGVPDRFSGSGSGTAFTLKISRVEAEDVGVYYCMQHLEYPFTFGGGTKLEIK	binds
Hu200C9B9-7 (antibody, V domains shown, humanized) VH: EVQLVESGGGLVQPGGSLRLSCAASGFSFNTYVMNWVRQAPGKGLEWVARIRTKSNNYATFYVDSVKDRFTISRDDSKNSLYLQMNSLKTEDTAVYYCVSGTITRLGAGLDYWGQGTLVTVSS VL: DIVMTQSPLSLPVTPGEPASISCRSSKSLLHSNGNTYLYWYLQKPGQSPQLLIYRMSNLASGVPDRFSGSGSGTAFTLKISRVEAEDVGVYYCMQHLEYPFTFGGGTKLEIK	binds

Next, values leading:

binding result	Binder
binds	Hu195H8D10-1 (antibody, V domains shown, humanized) VH: EVQLVESGGGLVQPGGSLRLSCAASGFNFNTYVMNWVRQAPGKGLEWVGRIRTKSNNYATYYADSVKDRFTISRDDSKNSLYLQMNSLKTEDTAVYYCARGTITRLGGGLDYWGQGTLVTVSS VL: DIVMTQSPLSLPVTPGEPASISCRSSKRLLHSNGNTYLYWYLQKPGQSPQLLIYRMSNLASGVPDRFSGSGSGTDFTLKISRVEAEDVGVYYCMQHLEYPFTFGGGTKLEIK
binds	Hu195H8D10-3 (antibody, V domains shown, humanized) VH: EVQLVESGGGLVQPGGSLRLSCAASGFNFNTYVMNWVRQAPGKGLEWVGRIRTKSNNYATYYADSVKDRFTISRDDSKNSLYLQMNSLKTEDTAVYYCARGTITRLGGGLDYWGQGTLVTVSS VL: DIVMTQSPLSLPVTPGEPASISCRSSKRLLHSNGNTYLYWYLQKPGQSPQLLIYRMSNLASGVPDRFSGSGSGTAFTLKISRVEAEDVGVYYCMQHLEYPFTFGGGTKLEIK
binds	Hu195H8D10-15 (antibody, V domains shown, humanized) VH: EVQLVESGGGLVQPGGSLRLSCAASGFNFNTYVMNWVRQAPGKGLEWVARIRTKSNNYATYYADSVKDRFTISRDDSESSLYLQMNSLKTEDTAMYYCVSGTITRLGGGLDYWGQGTLVTVSS VL: DIVMTQSPLSLPVTPGEPASISCRSSKRLLHSNGNTYLYWYLQKPGQSPQLLIYRMSNLASGVPDRFSGSGSGTAFTLKISRVEAEDVGVYYCMQHLEYPFTFGGGTKLEIK
binds	Hu200C9B9-13 (antibody, V domains shown, humanized) VH: EVQLVESGGGLVQPGGSLRLSCAASGFSFNTYVMNWVRQAPGKGLNWVARIRTKSNNYATFYVDSVKDRFTISRDDSENSLYLQMNSLKTEDTAVYYCVSGTITRLGAGLDYWGQGTLVTVSS VL: DIVMTQSPLSLPVTPGEPASISCRSSKSLLHSNGNTYLYWYLQKPGQSPQLLIYRMSNLASGVPDRFSGSGSGTDFTLKISRVEAEDVGVYYCMQHLEYPFTFGGGTKLEIK
binds	Hu200C9B9-3 (antibody, V domains shown, humanized) VH: EVQLVESGGGLVQPGGSLRLSCAASGFSFNTYVMNWVRQAPGKGLEWVGRIRTKSNNYATFYVDSVKDRFTISRDDSKNSLYLQMNSLKTEDTAVYYCARGTITRLGAGLDYWGQGTLVTVSS VL: DIVMTQSPLSLPVTPGEPASISCRSSKSLLHSNGNTYLYWYLQKPGQSPQLLIYRMSNLASGVPDRFSGSGSGTAFTLKISRVEAEDVGVYYCMQHLEYPFTFGGGTKLEIK
binds	Hu195H8D10-6 (antibody, V domains shown, humanized) VH: EVQLVESGGGLVQPGGSLRLSCAASGFNFNTYVMNWVRQAPGKGLEWVARIRTKSNNYATYYADSVKDRFTISRDDSKNSLYLQMNSLKTEDTAVYYCVSGTITRLGGGLDYWGQGTLVTVSS VL: DIVMTQSPLSLPVTPGEPASISCRSSKRLLHSNGNTYLYWFLQKPGQSPQLLIYRMSNLASGVPDRFSGSGSGTDFTLKISRVEAEDVGVYYCMQHLEYPFTFGGGTKLEIK
binds	Hu195H8D10-11 (antibody, V domains shown, humanized) VH: EVQLVESGGGLVQPGGSLRLSCAASGFNFNTYVMNWVRQAPGKGLEWVARIRTKSNNYATYYADSVKDRFTISRDDSKSSLYLQMNSLKTEDTAVYYCVSGTITRLGGGLDYWGQGTLVTVSS VL: DIVMTQSPLSLPVTPGEPASISCRSSKRLLHSNGNTYLYWYLQKPGQSPQLLIYRMSNLASGVPDRFSGSGSGTAFTLKISRVEAEDVGVYYCMQHLEYPFTFGGGTKLEIK
binds	Hu195H8D10-9 (antibody, V domains shown, humanized) VH: EVQLVESGGGLVQPGGSLRLSCAASGFNFNTYVMNWVRQAPGKGLEWVARIRTKSNNYATYYADSVKDRFTISRDDSKSSLYLQMNSLKTEDTAVYYCVSGTITRLGGGLDYWGQGTLVTVSS VL: DIVMTQSPLSLPVTPGEPASISCRSSKRLLHSNGNTYLYWYLQKPGQSPQLLIYRMSNLASGVPDRFSGSGSGTDFTLKISRVEAEDVGVYYCMQHLEYPFTFGGGTKLEIK
binds	Hu195H8D10-8 (antibody, V domains shown, humanized) VH: EVQLVESGGGLVQPGGSLRLSCAASGFNFNTYVMNWVRQAPGKGLEWVARIRTKSNNYATYYADSVKDRFTISRDDSKNSLYLQMNSLKTEDTAVYYCVSGTITRLGGGLDYWGQGTLVTVSS VL: DIVMTQSPLSLPVTPGEPASISCRSSKRLLHSNGNTYLYWFLQKPGQSPQLLIYRMSNLASGVPDRFSGSGSGTAFTLKISRVEAEDVGVYYCMQHLEYPFTFGGGTKLEIK
